Where “and” joins values, the source holds several entries; their conditions need not be identical. Equal entries are not always repeated.
B1: His6-Pex17p (natural protein, yeast, UniProt P40155 1-199, looked up)
chain: MTSINSFPRNIDWPSNIGIKKIEGTNPTVNAIKGLLYNGGSIYAFLYFVIAMFVEPTLQKQYQQRNDFSLFVLLRLRRIIAQLQKRLVMTPVSSLGFNEQNNFVERSTQTSDDNIIREDNSHWAEMIYQLQNMKQELQYFNRSSGQPSESIDDFVFQIKMVTDQVELTDRSRAFSNKSRNIIQGIREIKGWFVNGQVPR
B2: StrepII-Pex14p(M51L) (natural protein, yeast, UniProt P53112 1-341, looked up)
chain: MSDVVSKDRKALFDSAVSFLKDESIKDAPLLKKIEFLKSKGLTEKEIEIALKEPKKDGIVGDEVSKKIGSTENRASQDMYLYEAMPPTLPHRDWKDYFVMATATAGLLYGAYEVTRRYVIPNILPEAKSKLEGDKKEIDDQFSKIDTVLNAIEAEQAEFRKKESETLKELSDTIAELKQALVQTTRSREKIEDEFRIVKLEVVNMQNTIDKFVSDNDGMQELNNIQKEMESLKSLMNNRMESGNAQDNRLFSISPNGIPGIDTIPSASEILAKMGMQEESDKEKENGSDANKDDNAVPAWKKAREQTIDSNASIPEWQKNTAANEISVPDWQNGQVEDSIP

Key:
[1] = target: B2; experiment: cryo-EM structure
[2] = target: the molecule itself; experiment: native MS + SEC-MALS
[3] = target: B1; experiment: native MS
[4] = target: the molecule itself; experiment: cross-linking

## B1
[1]
  binding result: binds

## B2
[2]
  stoichiometry N: 3 copies
[3]
  stoichiometry N: 3 Pex14p:Pex17p and 6 Pex14p:Pex17p and 4.5 Pex14p:Pex17p

B3: Pex14p_(119-341) (domain or fragment, yeast, UniProt P53112 119-341, looked up)
chain: VIPNILPEAKSKLEGDKKEIDDQFSKIDTVLNAIEAEQAEFRKKESETLKELSDTIAELKQALVQTTRSREKIEDEFRIVKLEVVNMQNTIDKFVSDNDGMQELNNIQKEMESLKSLMNNRMESGNAQDNRLFSISPNGIPGIDTIPSASEILAKMGMQEESDKEKENGSDANKDDNAVPAWKKAREQTIDSNASIPEWQKNTAANEISVPDWQNGQVEDSIP
[4]
  stoichiometry N: 3

Reference: article doi:10.1101/854497 (bioRxiv, 2020)
